This passage reports stoichiometry N results from PMC11077948.

Test [1] addresses S. mutans CLC^F homologue encoded by ORF 1290 (Streptococcus mutans UA159). The test can be described thus: cross-linking; 0.2 mg/mL purified protein in detergent (DM) with 0.125% glutaraldehyde (~500-fold molar excess) at room temperature for the indicated times, quenched with 0.15 M Tris-HCl pH 7.5, SDS-PAGE; monomer and dimer bands.
The target in test [2] is S. mutans CLC^F F-/H+ antiporter encoded by ORF 1289 (Streptococcus mutans UA159). The test is described as above.

Broadly, the stoichiometry N is a count of units in the complex or per binding partner. Turning to “S. mutans CLC^F homologue encoded by ORF 1290 (natural protein)”, the stoichiometry N in test [1] stood at 2.
As to “S. mutans CLC^F F-/H+ antiporter encoded by ORF 1289 (natural protein)”, the stoichiometry N in test [2] is 2.
